Positions of bridges follow the written chain, without caps; N, C: chain ends. Non-standard residues stand in square brackets, D forms with d. Groups on a side chain read outwards from the residue. 2Nal = N[C@@H](Cc1ccc2ccccc2c1)C(=O)O; AEF = NCCOc1ccc(C[C@H](N)C(=O)O)cc1; αMeL = CC(C)C[C@](C)(N)C(=O)O; Pen = CC(C)(S)[C@H](N)C(=O)O; dAbu = CC[C@@H](N)C(=O)O; Thp = NC1(C(=O)O)CCOCC1; Abu = CC[C@H](N)C(=O)O
T1: interleukin-23 receptor (IL-23R) (human, UniProt Q5VWK5 24-629)
T1 sequence (looked up): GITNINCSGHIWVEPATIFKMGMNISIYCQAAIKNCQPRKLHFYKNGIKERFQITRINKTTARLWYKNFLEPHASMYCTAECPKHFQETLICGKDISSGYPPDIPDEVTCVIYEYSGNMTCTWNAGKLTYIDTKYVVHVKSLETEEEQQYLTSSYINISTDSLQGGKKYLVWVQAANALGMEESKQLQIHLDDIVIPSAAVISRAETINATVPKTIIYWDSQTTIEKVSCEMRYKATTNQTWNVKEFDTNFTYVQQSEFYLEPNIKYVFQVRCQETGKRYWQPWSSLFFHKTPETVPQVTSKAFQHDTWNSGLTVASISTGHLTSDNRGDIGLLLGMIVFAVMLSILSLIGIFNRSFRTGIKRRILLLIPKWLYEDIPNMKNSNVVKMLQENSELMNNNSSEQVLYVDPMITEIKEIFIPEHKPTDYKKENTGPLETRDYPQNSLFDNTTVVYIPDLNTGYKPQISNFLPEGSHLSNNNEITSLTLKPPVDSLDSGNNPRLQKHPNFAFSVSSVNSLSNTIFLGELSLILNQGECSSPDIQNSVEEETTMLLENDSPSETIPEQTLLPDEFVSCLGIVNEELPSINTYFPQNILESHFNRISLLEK


Assays:
[1] = system: IL-23R-expressing DB cells stimulated with IL-23 (pSTAT3 levels); assay: DB cells IL23R pSTAT3 cell assay (Cisbio HTRF pSTAT3); type: cell-based, human; conditions: IL-23 0.5 nM, 30 minutes at 37° C.
Excerpt: Human ELISA indicates the IL23-IL23R competitive binding assay described below, Rat ELISA indicates the rat IL-23R competitive binding ELISA assay described below, and pStat3HTRF indicates the DB cells IL-23R pSTAT3 cell assay described below. The peptides depicted in Table E1 are cyclized via a disulfide bridge formed between two Pen residues in these peptides. The peptides depicted in Table E2 are cyclized via a thioether bond between the indicated amino acid residues. Table E2 provides an illustrative structure depicting thioether cyclization, which is indicated in the table by the term “cyclo,” with the cyclic region bracketed immediately following the term “cyclo.” For certain peptides, the residue Abu is present where indicated, whereas in other embodiments, e.g., those related to the non-cyclized form, the Abu may be referred to as a hSer(Cl) or homoSer residue.
DB Cells IL23R pSTAT3 Cell Assay
IL-23 plays a central role in supporting and maintaining Th17 differentiation in vivo. […] This cell assay examines the levels of pSTAT3 in IL-23R-expressing DB cells when stimulated with IL-23 in the presence of test compounds.

[2] = biological target: T1, interleukin-23 receptor (IL-23R); assay: cell-based or functional assay

| Molecule | IC50, pStat3 HTRF (nM) [2] | other results |
| --- | --- | --- |
| 8 (Ac-[Pen]NTWQ[Pen][AEF]W[Thp]K(Ac)NN-NH2; disulfide 1-6 (inferred)) [compound 8] | – | IC50 ([1]; Table E1, Pen-Pen disulfide peptides): 0.001 to 0.01 µM |
| 73 (XXQTWQCXXXEND; MOD_RES (1)..(1) D-form arginine; MOD_RES (2)..(2) Abu; (2)..(7) residues cyclosized; MOD_RES (8)..(8) 4-(2-aminoethoxy)-L-phenylalanine; MOD_RES (9)..(9) L-2-Napthylalanine; MOD_RES (10)..(10) 4-amino-4-carboxy-tetrahydropyran) [compound 73] | – | IC50 ([1]; Table E2, thioether peptides): 0.001 to 0.01 µM |
| 74 (XXQTWQCXXXEDN; MOD_RES (1)..(1) D-form arginine; MOD_RES (2)..(2) Abu; (2)..(7) residues cyclosized; MOD_RES (8)..(8) 4-(2-aminoethoxy)-L-phenylalanine; MOD_RES (9)..(9) L-2-Napthylalanine; MOD_RES (10)..(10) 4-amino-4-carboxy-tetrahydropyran) [compound 74] | – | IC50 ([1]; Table E2, thioether peptides): 0.01 to 0.1 µM |
| 75 (XXQTWECXXXENN; MOD_RES (1)..(1) D-form arginine; MOD_RES (2)..(2) Abu; (2)..(7) residues cyclosized; MOD_RES (8)..(8) 4-(2-aminoethoxy)-L-phenylalanine; MOD_RES (9)..(9) L-2-Napthylalanine; MOD_RES (10)..(10) 4-amino-4-carboxy-tetrahydropyran) [compound 75] | – | IC50 ([1]; Table E2, thioether peptides): 0.001 to 0.01 µM |
| 77 (Ac-[dR][Abu]QTWQC[AEF][2Nal][Thp]EDD-NH2; thioether 2-7) [compound 77] | – | IC50 ([1]; Table E2, thioether peptides): 0.01 to 0.1 µM |
| 78 (Ac-[dR][Abu]QTWEC[AEF][2Nal][Thp]END-NH2; thioether 2-7) [compound 78] | – | IC50 ([1]; Table E2, thioether peptides): 0.001 to 0.01 µM |
| 79 (Ac-[dR][Abu]ETWQC[AEF][2Nal][Thp]END-NH2; thioether 2-7) [compound 79] | – | IC50 ([1]; Table E2, thioether peptides): 0.001 to 0.01 µM |
| 80 (Ac-[dR][Abu]QTWEC[AEF][2Nal][Thp]EDN-NH2; thioether 2-7) [compound 80] | – | IC50 ([1]; Table E2, thioether peptides): 0.01 to 0.1 µM |
| 81 (Ac-[dR][Abu]ETWQC[AEF][2Nal][Thp]EDN-NH2; thioether 2-7) [compound 81] | – | IC50 ([1]; Table E2, thioether peptides): 0.01 to 0.1 µM |
| XNTWQXXXXKNNX (Ac-[Pen]-NTWQ-[Pen]-[Phe[4-(2-aminoethoxy)]-[2-Nal]-[α-MeLeu]-[Lys(Ac)]-NN-[(D)Gln]-NH2) [SEQ ID NO 177] | < 1 nM | – |
| Ac-K([Ser-Ac])[Pen]NTWK(Ac)[Pen][AEF][2Nal][αMeL]K(Ac)NN-NH2 (disulfide 2-7 (inferred)) [SEQ ID NO 226] | < 1 nM | – |
| XXQTWQCXXXENN (Ac-[(D)Arg]-cyclo[[Abu]-QTWQC]-[Phe[4-(2-aminoethoxy)]-[2-Nal]-[3-cyclohexyl-Ala]-ENN-NH2) [SEQ ID NO 147] | < 1 nM | – |
| Ac-K([Leu-Ac])[Pen]NTWK(Ac)[Pen][AEF][2Nal][αMeL]K(Ac)NN-NH2 (disulfide 2-7 (inferred)) [SEQ ID NO 228] | < 1 nM | – |
| XNTWKXXXXKNNX (Ac-[Pen]-NTW-[Lys(Ac)]-[Pen]-[Phe[4-(2-aminoethoxy)]-[2-Nal]-[α-MeLeu]-[Lys(Ac-(D)Asn)]-NN-[(D)Ile]-NH2) [SEQ ID NO 218] | < 1 nM | – |
| XNTWKXXXXKNNX (Ac-[Pen]-NTW-[Lys(Ac)]-[Pen]-[Phe[4-(2-aminoethoxy)]-[2-Nal]-[α-MeLeu]-[Lys(Ac)]-NN-[Sar]-NH2) [SEQ ID NO 198] | < 1 nM | – |
| Ac-K([Arg-Ac])[Pen]NTWK(Ac)[Pen][AEF][2Nal][αMeL]K(Ac)NN-NH2 (disulfide 2-7 (inferred)) [SEQ ID NO 227] | < 1 nM | – |
| XNTWKXXXXKNNG (Ac-[Pen]-NTW-[Lys(Ac)]-[Pen]-[Phe[4-(2-aminoethoxy)]-[2-Nal]-[α-MeLeu]-[Lys(Ac)]-NNG-NH2) [SEQ ID NO 195] | < 1 nM | – |

| Molecule | IC50, pStat3 HTRF (nM) [2] | other results |
| --- | --- | --- |
| XNTWQXXXXKNNY (Ac-[Pen]-NTWQ-[Pen]-[Phe[4-(2-aminoethoxy)]-[2-Nal]-[α-MeLeu]-[Lys(Ac)]-NNY-NH2) [SEQ ID NO 159] | < 1 nM | – |
| XNTWKXXXXKNNX (Ac-[Pen]-NTW-[Lys(Ac)]-[Pen]-[Phe[4-(2-aminoethoxy)]-[2-Nal]-[α-MeLeu]-[Lys(Ac)]-NN-[β-Ala]-NH2) [SEQ ID NO 196] | < 1 nM | – |
| XNTWQXXXXKNNX (Ac-[Pen]-NTWQ-[Pen]-[Phe[4-(2-aminoethoxy)]-[2-Nal]-[α-MeLeu]-[Lys(Ac)]-NN-[(D)Arg]-NH2) [SEQ ID NO 174] | < 1 nM | – |
| Ac-[Pen]NTWQ[dAbu][AEF][2Nal][αMeL]K(Ac)NN-NH2 (thioether 1-6) [SEQ ID NO 137] | > 100 nM | – |
| XXQTWQCXXXENN (Ac-[(D)Arg]-cyclo[[Abu]-QTWQC]-[Phe[4-(2-aminoethoxy)]-[2-Nal]-[Aib]-ENN-NH2) [SEQ ID NO 148] | < 1 nM | – |
| XNTWKXXXXKNN (Ac-[Pen]-NTW-[Lys(Ac)]-[Pen]-[Phe[4-(2-aminoethoxy)]-[2-Nal]-[α-MeLeu]-[Lys(Ac)]-NN-NH2) [SEQ ID NO 170] | < 1 nM | – |
| Ac-K([Glu-Ac])[Pen]NTWK(Ac)[Pen][AEF][2Nal][αMeL]K(Ac)NN-NH2 (disulfide 2-7 (inferred)) [SEQ ID NO 223] | < 1 nM | – |
| XXQTWQCXXXENN (Ac-[(D)Arg]-cyclo[[Abu]-QTWQC]-[Phe[4-(2-aminoethoxy)]-[2-Nal]-[α-MeLeu]-ENN-NH2) [SEQ ID NO 138] | < 1 nM | – |
| XNTWQXXXXKNNX (Ac-[Pen]-NTWQ-[Pen]-[Phe[4-(2-aminoethoxy)]-[2-Nal]-[α-MeLeu]-[Lys(Ac)]-NN-[(D)Ile]-NH2) [SEQ ID NO 175] | < 1 nM | – |
| XXQTWKCXXXENN (Ac-[(D)Arg]-cyclo[[Abu]-QTW-Lys(isoGlu-Palm)-C]-[Phe[4-(2-aminoethoxy)]-[2-Nal]-[4-amino-4-carboxy-tetrahydropyran]-ENN-NH2) [SEQ ID NO 153] | > 100 nM | – |
| XNTWQXXXXKNNQ (Ac-[Pen]-NTWQ-[Pen]-[Phe[4-(2-aminoethoxy)]-[2-Nal]-[α-MeLeu]-[Lys(Ac)]-NNQ-NH2) [SEQ ID NO 164] | < 1 nM | – |
| Ac-K([Phe-Ac])[Pen]NTWK(Ac)[Pen][AEF][2Nal][αMeL]K(Ac)NN-NH2 (disulfide 2-7 (inferred)) [SEQ ID NO 224] | < 1 nM | – |
| XNTWKXXXXKNNX (Ac-[Pen]-NTW-[Lys(Ac)]-[Pen]-[Phe[4-(2-aminoethoxy)]-[2-Nal]-[α-MeLeu]-[Lys(Ac)]-NN-[Ahx]-NH2) [SEQ ID NO 197] | < 1 nM | – |
| Ac-K([Tyr-Ac])[Pen]NTWK(Ac)[Pen][AEF][2Nal][αMeL]K(Ac)NN-NH2 (disulfide 2-7 (inferred)) [SEQ ID NO 225] | < 1 nM | – |
| XNTWQXXXXKNNX ((Ac-[Pen]-NTWQ-[Pen]-[Phe(4-CONH2)]-[2-Nal]-[α-MeLeu]-[Lys(Ac)]-NN-[(D)Lys]-NH2)2-DIG) [SEQ ID NO 184] | < 1 nM | – |
| XNTWQXXXXKNNS (Ac-[Pen]-NTWQ-[Pen]-[Phe[4-(2-aminoethoxy)]-[2-Nal]-[α-MeLeu]-[Lys(Ac)]-NNS-NH2) [SEQ ID NO 165] | < 1 nM | – |
| XNTWQXXXXKNNR (Ac-[Pen]-NTWQ-[Pen]-[Phe[4-(2-aminoethoxy)]-[2-Nal]-[α-MeLeu]-[Lys(Ac)]-NNR-NH2) [SEQ ID NO 161] | < 1 nM | – |

Further lines, with some results ahead:

| IC50, pStat3 HTRF (nM) [2] | Molecule | other results |
| --- | --- | --- |
| < 1 nM | Ac-[dK]([Tyr-Ac])[Pen]NTWK(Ac)[Pen][AEF][2Nal][αMeL]K(Ac)NN-NH2 (disulfide 2-7 (inferred)) [SEQ ID NO 232] | – |
| < 1 nM | Ac-[dK]([Ser-Ac])[Pen]NTWK(Ac)[Pen][AEF][2Nal][αMeL]K(Ac)NN-NH2 (disulfide 2-7 (inferred)) [SEQ ID NO 233] | – |
| < 1 nM | Ac-[dK]([Arg-Ac])[Pen]NTWK(Ac)[Pen][AEF][2Nal][αMeL]K(Ac)NN-NH2 (disulfide 2-7 (inferred)) [SEQ ID NO 234] | – |
| < 1 nM | Ac-[dK]([Phe-Ac])[Pen]NTWK(Ac)[Pen][AEF][2Nal][αMeL]K(Ac)NN-NH2 (disulfide 2-7 (inferred)) [SEQ ID NO 231] | – |
| < 1 nM | Ac-[dK]([Leu-Ac])[Pen]NTWK(Ac)[Pen][AEF][2Nal][αMeL]K(Ac)NN-NH2 (disulfide 2-7 (inferred)) [SEQ ID NO 235] | – |
| < 1 nM | Ac-K([Pro-Ac])[Pen]NTWK(Ac)[Pen][AEF][2Nal][αMeL]K(Ac)NN-NH2 (disulfide 2-7 (inferred)) [SEQ ID NO 229] | – |
| < 1 nM | Ac-[dK]([Pro-Ac])[Pen]NTWK(Ac)[Pen][AEF][2Nal][αMeL]K(Ac)NN-NH2 (disulfide 2-7 (inferred)) [SEQ ID NO 236] | – |
| < 1 nM | Ac-[dK]([Glu-Ac])[Pen]NTWK(Ac)[Pen][AEF][2Nal][αMeL]K(Ac)NN-NH2 (disulfide 2-7 (inferred)) [SEQ ID NO 230] | – |

From patent US20200207822A1, “PEPTIDE INHIBITORS OF INTERLEUKIN-23 RECEPTOR AND THEIR USE TO TREAT INFLAMMATORY DISEASES” (Protagonist Therapeutics, Inc., priority 2017, published 2020)
